System: Escherichia coli TOP10
Assay: shrunken log2 fold change of peptide-encoding DNA abundance (4.5 h post-induction vs induction); higher = less antimicrobial activity (less host growth inhibition)
Settings: time post-induction: 4.5 h; library: site-saturation at positions 5, 18, 19, 20
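Also: peptides expressed intracellularly from a pBAD plasmid library in pooled LB shake-flask culture, induced with 0.3% L-arabinose, DNA abundance read by NGS, three biological replicates, DESeq2 with apeglm shrinkage.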

Sequence: RRIRMRPPRLPRPRPRPNFFPRP
- shrunken log2 fold change: 0.128

Sequence: RRIRTRPPRLPRPRPRPPKQPRP
- shrunken log2 fold change: -0.00507

Sequence: RRIRFRPPRLPRPRPRPKRIPRP
- shrunken log2 fold change: -0.442

Sequence: RRIRFRPPRLPRPRPRPPKEPRP
- shrunken log2 fold change: 0.0652

Sequence: RRIRPRPPRLPRPRPRPLHQPRP
- shrunken log2 fold change: -0.0461

Sequence: RRIRLRPPRLPRPRPRPEMDPRP
- shrunken log2 fold change: -0.059

Sequence: RRIRFRPPRLPRPRPRPKYFPRP
- shrunken log2 fold change: -0.758

Sequence: RRIRSRPPRLPRPRPRPGRQPRP
- shrunken log2 fold change: -0.00462

Sequence: RRIRCRPPRLPRPRPRPPYDPRP
- shrunken log2 fold change: -0.0699

Sequence: RRIRFRPPRLPRPRPRPSHCPRP
- shrunken log2 fold change: -0.28

Sequence: RRIRPRPPRLPRPRPRPCNDPRP
- shrunken log2 fold change: -0.456

Sequence: RRIRIRPPRLPRPRPRPWAVPRP
- shrunken log2 fold change: -0.203

Sequence: RRIRYRPPRLPRPRPRPGQWPRP
- shrunken log2 fold change: 0.136

Sequence: RRIRWRPPRLPRPRPRPMFEPRP
- shrunken log2 fold change: -0.0796

Sequence: RRIRTRPPRLPRPRPRPMNEPRP
- shrunken log2 fold change: -0.172

Sequence: RRIRCRPPRLPRPRPRPLFQPRP
- shrunken log2 fold change: -0.417

Sequence: RRIRIRPPRLPRPRPRPYIDPRP
- shrunken log2 fold change: -0.484

Sequence: RRIRRRPPRLPRPRPRPWRDPRP
- shrunken log2 fold change: -0.0485

Sequence: RRIRVRPPRLPRPRPRPDCSPRP
- shrunken log2 fold change: -0.0973

Sequence: RRIRRRPPRLPRPRPRPMKVPRP
- shrunken log2 fold change: -0.0467

Sequence: RRIRMRPPRLPRPRPRPSYNPRP
- shrunken log2 fold change: -0.808

Sequence: RRIRPRPPRLPRPRPRPARLPRP
- shrunken log2 fold change: 0.00523

Sequence: RRIRQRPPRLPRPRPRPWFEPRP
- shrunken log2 fold change: -0.00226

Sequence: RRIRTRPPRLPRPRPRPLSHPRP
- shrunken log2 fold change: -0.833

Sequence: RRIRMRPPRLPRPRPRPWAHPRP
- shrunken log2 fold change: -0.091

Sequence: RRIRKRPPRLPRPRPRPSGRPRP
- shrunken log2 fold change: 0.288

Sequence: RRIRHRPPRLPRPRPRPVPKPRP
- shrunken log2 fold change: 0.0819

Sequence: RRIRGRPPRLPRPRPRPMFRPRP
- shrunken log2 fold change: 0.303

Sequence: RRIRHRPPRLPRPRPRPPKIPRP
- shrunken log2 fold change: 0.282

Sequence: RRIRSRPPRLPRPRPRPNGWPRP
- shrunken log2 fold change: 0.623

Sequence: RRIRTRPPRLPRPRPRPCLCPRP
- shrunken log2 fold change: -0.29

Sequence: RRIRVRPPRLPRPRPRPIPLPRP
- shrunken log2 fold change: -0.107

Sequence: RRIRVRPPRLPRPRPRPAFVPRP
- shrunken log2 fold change: 0.00544

Sequence: RRIRQRPPRLPRPRPRPTDRPRP
- shrunken log2 fold change: 0.0938

Sequence: RRIRGRPPRLPRPRPRPRAPPRP
- shrunken log2 fold change: 1.05

Sequence: RRIRARPPRLPRPRPRPPGFPRP
- shrunken log2 fold change: 0.59

Sequence: RRIRARPPRLPRPRPRPLQPPRP
- shrunken log2 fold change: 0.583

Sequence: RRIRDRPPRLPRPRPRPTIVPRP
- shrunken log2 fold change: 0.0194

Sequence: RRIRERPPRLPRPRPRPQQKPRP
- shrunken log2 fold change: -0.157

Sequence: RRIRQRPPRLPRPRPRPDRGPRP
- shrunken log2 fold change: 0.0176

Sequence: RRIRNRPPRLPRPRPRPLTAPRP
- shrunken log2 fold change: -0.221

Sequence: RRIRLRPPRLPRPRPRPQWQPRP
- shrunken log2 fold change: 0.0949

Sequence: RRIRERPPRLPRPRPRPAFNPRP
- shrunken log2 fold change: 0.495

Sequence: RRIRSRPPRLPRPRPRPWCFPRP
- shrunken log2 fold change: -0.715

Sequence: RRIRWRPPRLPRPRPRPGQEPRP
- shrunken log2 fold change: 0.617

Sequence: RRIRNRPPRLPRPRPRPRSYPRP
- shrunken log2 fold change: -0.0727

Sequence: RRIRKRPPRLPRPRPRPIAMPRP
- shrunken log2 fold change: 0.147

Sequence: RRIRNRPPRLPRPRPRPRQCPRP
- shrunken log2 fold change: 0.0196

Sequence: RRIRCRPPRLPRPRPRPQITPRP
- shrunken log2 fold change: -0.639

Sequence: RRIRVRPPRLPRPRPRPWPRPRP
- shrunken log2 fold change: 0.183

Sequence: RRIRMRPPRLPRPRPRPLEVPRP
- shrunken log2 fold change: 0.405

Sequence: RRIRPRPPRLPRPRPRPYAIPRP
- shrunken log2 fold change: -0.219

Sequence: RRIRIRPPRLPRPRPRPILSPRP
- shrunken log2 fold change: -0.421

Sequence: RRIRERPPRLPRPRPRPQQQPRP
- shrunken log2 fold change: 0.00378

Sequence: RRIRGRPPRLPRPRPRPKCPPRP
- shrunken log2 fold change: 0.625

Sequence: RRIRNRPPRLPRPRPRPVQFPRP
- shrunken log2 fold change: -0.124

Sequence: RRIRFRPPRLPRPRPRPHWHPRP
- shrunken log2 fold change: -0.444

Sequence: RRIRERPPRLPRPRPRPNYIPRP
- shrunken log2 fold change: -0.672

Sequence: RRIRHRPPRLPRPRPRPFIWPRP
- shrunken log2 fold change: -0.162

Sequence: RRIRIRPPRLPRPRPRPRFIPRP
- shrunken log2 fold change: -0.636

Sequence: RRIRDRPPRLPRPRPRPAWCPRP
- shrunken log2 fold change: 0.183

Sequence: RRIRVRPPRLPRPRPRPCPQPRP
- shrunken log2 fold change: -0.0828

Sequence: RRIRNRPPRLPRPRPRPGQPPRP
- shrunken log2 fold change: 0.0308

Sequence: RRIRGRPPRLPRPRPRPMPTPRP
- shrunken log2 fold change: 0.612

Sequence: RRIRFRPPRLPRPRPRPCAIPRP
- shrunken log2 fold change: -0.0259

Sequence: RRIRARPPRLPRPRPRPGYPPRP
- shrunken log2 fold change: 0.0269

Sequence: RRIRLRPPRLPRPRPRPGMDPRP
- shrunken log2 fold change: 0.126

Sequence: RRIRKRPPRLPRPRPRPFCVPRP
- shrunken log2 fold change: 0.706

Sequence: RRIRGRPPRLPRPRPRPAKNPRP
- shrunken log2 fold change: 0.554

Sequence: RRIRLRPPRLPRPRPRPDYRPRP
- shrunken log2 fold change: -0.0122

Sequence: RRIRGRPPRLPRPRPRPRRFPRP
- shrunken log2 fold change: 0.402

Sequence: RRIRKRPPRLPRPRPRPCLWPRP
- shrunken log2 fold change: 0.0613

Sequence: RRIRSRPPRLPRPRPRPPEQPRP
- shrunken log2 fold change: 0.306

Sequence: RRIRIRPPRLPRPRPRPPRPPRP
- shrunken log2 fold change: 0.822

Sequence: RRIRARPPRLPRPRPRPRVEPRP
- shrunken log2 fold change: 0.187

Sequence: RRIRFRPPRLPRPRPRPVRQPRP
- shrunken log2 fold change: 0.0478

Sequence: RRIRCRPPRLPRPRPRPFCRPRP
- shrunken log2 fold change: -0.0846

Sequence: RRIRTRPPRLPRPRPRPWASPRP
- shrunken log2 fold change: -0.068

Sequence: RRIRPRPPRLPRPRPRPHMVPRP
- shrunken log2 fold change: -0.0201

Sequence: RRIRQRPPRLPRPRPRPTCYPRP
- shrunken log2 fold change: -0.309

Sequence: RRIRNRPPRLPRPRPRPLAIPRP
- shrunken log2 fold change: 0.0449

Sequence: RRIRNRPPRLPRPRPRPPSPPRP
- shrunken log2 fold change: 0.538

Sequence: RRIRRRPPRLPRPRPRPCVWPRP
- shrunken log2 fold change: 0.999

Sequence: RRIRIRPPRLPRPRPRPMLPPRP
- shrunken log2 fold change: -0.0228

Sequence: RRIRTRPPRLPRPRPRPVFPPRP
- shrunken log2 fold change: -0.339

Sequence: RRIRPRPPRLPRPRPRPVTMPRP
- shrunken log2 fold change: -0.297

Sequence: RRIRKRPPRLPRPRPRPASHPRP
- shrunken log2 fold change: 0.442

Sequence: RRIRTRPPRLPRPRPRPFDYPRP
- shrunken log2 fold change: -0.0205

Sequence: RRIRMRPPRLPRPRPRPTTNPRP
- shrunken log2 fold change: 0.403

Sequence: RRIRGRPPRLPRPRPRPNWSPRP
- shrunken log2 fold change: 0.131

Sequence: RRIRARPPRLPRPRPRPDMKPRP
- shrunken log2 fold change: -0.0184

Sequence: RRIRWRPPRLPRPRPRPMLKPRP
- shrunken log2 fold change: -0.109

Sequence: RRIRLRPPRLPRPRPRPSDTPRP
- shrunken log2 fold change: -0.142

Sequence: RRIRFRPPRLPRPRPRPDMDPRP
- shrunken log2 fold change: -0.107

Sequence: RRIRDRPPRLPRPRPRPHNSPRP
- shrunken log2 fold change: 0.0166

Sequence: RRIRMRPPRLPRPRPRPDDFPRP
- shrunken log2 fold change: 0.938

Sequence: RRIRERPPRLPRPRPRPTEVPRP
- shrunken log2 fold change: -0.121

Sequence: RRIRWRPPRLPRPRPRPCRSPRP
- shrunken log2 fold change: 0.0427

Sequence: RRIRHRPPRLPRPRPRPPHVPRP
- shrunken log2 fold change: 0.16

Sequence: RRIRKRPPRLPRPRPRPQQPPRP
- shrunken log2 fold change: -0.041

Sequence: RRIRARPPRLPRPRPRPDQDPRP
- shrunken log2 fold change: 0.605

Sequence: RRIRARPPRLPRPRPRPLIAPRP
- shrunken log2 fold change: 0.504

Sequence: RRIRSRPPRLPRPRPRPMAAPRP
- shrunken log2 fold change: 1.8

Sequence: RRIRPRPPRLPRPRPRPRMSPRP
- shrunken log2 fold change: 0.232

Sequence: RRIRTRPPRLPRPRPRPRGWPRP
- shrunken log2 fold change: 0.897

Sequence: RRIRYRPPRLPRPRPRPAQHPRP
- shrunken log2 fold change: -0.515

Sequence: RRIRCRPPRLPRPRPRPCGFPRP
- shrunken log2 fold change: -0.29

Sequence: RRIRERPPRLPRPRPRPFWWPRP
- shrunken log2 fold change: 0.239

Sequence: RRIRHRPPRLPRPRPRPCFFPRP
- shrunken log2 fold change: -0.193

Sequence: RRIRVRPPRLPRPRPRPLYKPRP
- shrunken log2 fold change: -0.584

Sequence: RRIRQRPPRLPRPRPRPEHMPRP
- shrunken log2 fold change: -0.0877

Sequence: RRIRHRPPRLPRPRPRPFKIPRP
- shrunken log2 fold change: -0.192

Sequence: RRIRHRPPRLPRPRPRPYACPRP
- shrunken log2 fold change: -0.225

Sequence: RRIRDRPPRLPRPRPRPQEFPRP
- shrunken log2 fold change: -0.0529

Sequence: RRIRYRPPRLPRPRPRPECLPRP
- shrunken log2 fold change: -0.171

Sequence: RRIRNRPPRLPRPRPRPIRVPRP
- shrunken log2 fold change: -0.0394

Sequence: RRIRLRPPRLPRPRPRPYVCPRP
- shrunken log2 fold change: -0.0658

Sequence: RRIRERPPRLPRPRPRPHHVPRP
- shrunken log2 fold change: 0.00979

Sequence: RRIRTRPPRLPRPRPRPRIGPRP
- shrunken log2 fold change: 0.116

Sequence: RRIRVRPPRLPRPRPRPVKHPRP
- shrunken log2 fold change: -0.3

Sequence: RRIRMRPPRLPRPRPRPISVPRP
- shrunken log2 fold change: 0.103

Sequence: RRIRRRPPRLPRPRPRPPNKPRP
- shrunken log2 fold change: 0.333

Sequence: RRIRNRPPRLPRPRPRPYCEPRP
- shrunken log2 fold change: -0.469

Sequence: RRIRKRPPRLPRPRPRPSVDPRP
- shrunken log2 fold change: 0.0884

Sequence: RRIRHRPPRLPRPRPRPRMPPRP
- shrunken log2 fold change: 0.133

— the supplement of paper PMC9112550, “Optimization of the antimicrobial peptide Bac7 by deep mutational scanning” (BMC Biology, 2022)
